In patent US20120258482:

Target: purified recombinant 6x His-PCNA
Sequence (chain, as listed by the source): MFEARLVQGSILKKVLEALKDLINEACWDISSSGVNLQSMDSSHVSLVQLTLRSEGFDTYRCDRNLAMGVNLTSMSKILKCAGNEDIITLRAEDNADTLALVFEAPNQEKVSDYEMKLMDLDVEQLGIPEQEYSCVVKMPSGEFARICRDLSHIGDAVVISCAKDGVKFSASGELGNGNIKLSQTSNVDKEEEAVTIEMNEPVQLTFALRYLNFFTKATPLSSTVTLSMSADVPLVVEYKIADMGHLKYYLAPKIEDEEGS

B1: Flag-tagged C6orf211 protein fusion (Flag-Arm1) (protein)
chain: MAVVPASLSGQDVGSFAYLTIKDRIPQILTKVIDTLHRHKSEFFEKHGEEGVEAEKKAISLLSKLRNELQTDKPFIPLVEKFVDTDIWNQYLEYQQSLLNESDGKSRWFYSPWLLVECYMYRRIHEAIIQSPPIDYFDVFKESKEQNFYGSQESIIALCTHLQQLIRTIEDLDENQLKDEFFKLLQISLWGNKCDLSLSGGESSSQNTNVLNSLEDLKPFILLNDMEHLWSLLSNCKKTREKASATRVYIVLDNSGFELVTDLILADFLLSSELATEVHFYGKTIPWFVSDTTIHDFNWLIEQVKHSNHKWMSKCGADWEEYIKMGKWVYHNHIFWTLPHEYCAMPQVAPDLYAELQKAHLILFKGDLNYRKLTGDRKWEFSVPFHQALNGFHPAPLCTIRTLKAEIQVGLQPGQGEQLLASEPSWWTTGKYGIFQYDGPL
PCNA-dependent carboxyl methyltransferase activity (vapor diffusion assay): Significant levels of PCNA-dependent carboxyl methyltransferase activity was detected in the anti-Flag Flag-Arm1 expressing extracts, and this activity was not present in the immunoprecipitates from control extracts
